Assay results published in publication PMC8111768 (Immunity, 2021).

B1: recombinant murine FcγRIV (receptor)
chain: GLQKAVVNLDPKWVRVLEEDSVTLRCQGTFSPEDNSIKWFHNESLIPHQDANYVIQSARVKDSGMYRCQTALSTISDPVQLEVHMGWLLLQTTKWLFQEGDPIHLRCHSWQNRPVRKVTYLQNGKGKKYFHENSELLIPKATHNDSGSYFCRGLIGHNNKSSASFRISLGDPGSPSMFPPWHQ
modifications: soluble ectodomain by convention (UniProt topology); tag not stated
B2: recombinant murine FcγRIII (receptor)
chain: ALPKAVVKLDPPWIQVLKEDMVTLMCEGTHNPGNSSTQWFHNGRSIRSQVQASYTFKATVNDSGEYRCQMEQTRLSDPVDLGVISDWLLLQTPQRVFLEGETITLRCHSWRNKLLNRISFFHNEKSVRYHHYKSNFSIPKANHSHSGDYYCKGSLGSTQHQSKPVTITVQDPATTSSISLVWYHT
modifications: soluble ectodomain by convention (UniProt topology); tag not stated
B3: recombinant murine FcγRIIb (receptor)
chain: THDLPKAVVKLEPPWIQVLKEDTVTLTCEGTHNPGNSSTQWFHNGRSIRSQVQASYTFKATVNDSGEYRCQMEQTRLSDPVDLGVISDWLLLQTPQLVFLEGETITLRCHSWRNKLLNRISFFHNEKSVRYHHYSSNFSIPKANHSHSGDYYCKGSLGRTLHQSKPVTITVQGPKSSRSLP
modifications: soluble ectodomain by convention (UniProt topology); tag not stated

Columns and labels:
Experiment in all cases: BLI
[1] = target: VIC16 REFORMab SDIEALGA (G236A/S239D/A330L/I332E) (mouse | human)
[2] = target: VIC16 REFORMab EFTEA (G236A/S267E/H268F/S324T/I332E) (mouse | human)
[3] = target: VIC16 REFORMab KWES (printed K236W/E333S) (mouse | human)
[4] = target: VIC16 REFORMab LALA (L234A/L235A) (mouse | human)

Row | Binder | Kd [1] [nM] | Kd [2] [nM] | Kd [3] [nM] | Kd [4] [nM]
1 | B1 | 1 | 120 | 160 | 
2 | B2 | 10 | 1100 | 20 | 820000
3 | B3 | 130 | 490 | 46000 | 
